Where “and” joins values, the source holds several entries; their conditions need not be identical. Equal entries are not always repeated. Non-standard residues stand in square brackets, D forms with d. Primed or numbered codes have the meaning given here. No end group written: not given here. *: point of attachment. cyclohexylmethylazacarbonyl = cyclohexylmethylazacarbonyl N-terminal cap, introduced with cyclohexylmethyl isocyanate, O=C(NCC1CCCCC1)*; benzylazacarbonyl = benzylazacarbonyl N-terminal cap (benzylaminocarbonyl), introduced with benzyl isocyanate, O=C(NCc1ccccc1)*; Argininal = arginine aldehyde, N=C(N)NCCC[C@@H](C=O)N*; argininal = arginine aldehyde, N=C(N)NCCC[C@@H](C=O)N*; aldehyde′ = argininal (arginine aldehyde) C-terminus; Propanoyl(3-cHex) = O=C(CCC1CCCCC1)*; Isobutyloxycarbonyl = CC(C)COC(=O)*; d(aThr) = C[C@@H](O)[C@@H](N)C(=O)O; cisHyp = O=C(O)[C@@H]1C[C@H](O)CN1; Isopropoxycarbonyl = CC(C)OC(=O)*; 3‑phenylpropyl = c1ccc(CCC*)cc1; d(hSer) = N[C@H](CCO)C(=O)O; Isovaleryl = CC(C)CC(=O)*; NMeA = CN[C@@H](C)C(=O)O; dAbu = CC[C@@H](N)C(=O)O; dDap = NC[C@@H](N)C(=O)O; Cbz = O=C(OCc1ccccc1)*; Sar = CNCC(=O)O
Experiments:
Assay in all cases: cell-based or functional assay
[1] = target: Urokinase (Abbokinase), manufactured by Abbott Laboratories (UniProt P00749 156-431)
[2] = target: Human rt-PA (Activase), obtained from Genentech Inc. (human, UniProt P00750 36-562)
[3] = target: Purified human plasmin, obtained from Enzyme Research Laboratories, Inc. (human, UniProt P00747 97-810, limits assumed)
Chain of Purified human plasmin, obtained from Enzyme Research Laboratories, Inc. (P00747 97-810 limits assumed): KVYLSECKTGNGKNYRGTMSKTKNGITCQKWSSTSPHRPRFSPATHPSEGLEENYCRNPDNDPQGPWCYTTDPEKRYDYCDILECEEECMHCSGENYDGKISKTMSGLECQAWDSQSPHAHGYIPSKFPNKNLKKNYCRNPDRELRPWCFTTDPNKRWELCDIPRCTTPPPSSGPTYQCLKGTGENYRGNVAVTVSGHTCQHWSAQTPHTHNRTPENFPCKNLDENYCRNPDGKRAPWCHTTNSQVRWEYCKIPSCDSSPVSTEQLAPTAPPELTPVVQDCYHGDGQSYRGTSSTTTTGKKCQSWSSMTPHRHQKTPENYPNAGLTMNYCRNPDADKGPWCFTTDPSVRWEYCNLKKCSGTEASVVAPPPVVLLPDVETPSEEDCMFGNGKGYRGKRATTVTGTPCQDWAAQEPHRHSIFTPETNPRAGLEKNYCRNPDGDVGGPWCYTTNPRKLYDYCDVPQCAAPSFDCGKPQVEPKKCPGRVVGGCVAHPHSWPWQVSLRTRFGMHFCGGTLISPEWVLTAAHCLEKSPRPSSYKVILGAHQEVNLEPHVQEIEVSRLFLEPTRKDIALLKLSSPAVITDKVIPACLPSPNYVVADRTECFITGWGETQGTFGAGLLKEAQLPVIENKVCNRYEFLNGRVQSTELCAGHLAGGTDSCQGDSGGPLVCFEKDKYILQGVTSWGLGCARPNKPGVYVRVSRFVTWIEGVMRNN

Chain of Human rt-PA (Activase), obtained from Genentech Inc. (P00750 36-562 limits assumed): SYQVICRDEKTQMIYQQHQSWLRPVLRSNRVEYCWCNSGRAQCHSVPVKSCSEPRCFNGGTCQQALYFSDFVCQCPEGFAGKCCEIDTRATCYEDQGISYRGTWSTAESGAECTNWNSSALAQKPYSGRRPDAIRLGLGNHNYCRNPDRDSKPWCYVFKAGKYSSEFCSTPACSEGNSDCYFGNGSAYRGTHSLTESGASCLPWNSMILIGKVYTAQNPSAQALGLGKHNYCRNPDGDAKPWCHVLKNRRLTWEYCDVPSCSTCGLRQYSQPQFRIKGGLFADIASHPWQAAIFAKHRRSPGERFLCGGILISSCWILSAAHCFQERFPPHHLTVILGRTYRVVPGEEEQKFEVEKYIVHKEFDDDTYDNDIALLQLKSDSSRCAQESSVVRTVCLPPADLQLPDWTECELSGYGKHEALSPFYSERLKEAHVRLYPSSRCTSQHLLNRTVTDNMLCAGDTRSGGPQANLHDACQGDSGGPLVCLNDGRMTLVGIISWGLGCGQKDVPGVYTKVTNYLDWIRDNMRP

| Binder | IC50 [1] | IC50 [2] | IC50 [3] |
| --- | --- | --- | --- |
| cyclohexylmethylazacarbonyl-[dS]-Ala-[argininal] [cyclohexylmethylazacarbonyl-D-seryl-alanyl-argininal] | ≥ 100 nM and ≤ 250 nM | > 2500 nM | > 2500 nM |
| {trans‑β‑styrenesulfonyl}-[dS]-Ala-[argininal] [trans-β-Styrenesulfonyl-D-seryl-L-alanyl-argininal] | < 100 nM | > 2500 nM | – |
| {2‑ethylhexyloxycarbonyl}-[dS]-Ala-Arg-{aldehyde′} [2-ethylhexyloxy-carbonyl-D-seryl-alanyl-argininal] | < 100 nM | > 2500 nM | – |
| Cbz-Ser-Ala-[argininal] [benzyloxycarbonyl-seryl-alanyl-argininal] | – | > 2500 nM | – |
| Cbz-[dAbu]-Ala-[argininal] [benzyloxycarbonyl-D-2-aminobutyryl-L-alanyl-argininal] | – | > 2500 nM | – |
| isobutyloxycarbonyl-[dS]-Ala-[Argininal] (not fully specified (C-terminus); printed as i-Butoxycarbonyl-D-Ser-L-Ala-Argininal; also: trifluoroacetate salt) [Isobutyloxycarbonyl-D-seryl-L-alanyl-argininal] | < 100 nM | > 2500 nM | – |
| {3‑phenylpropylsulfonyl}-[dS]-Ala-Arg-{aldehyde′} [3-phenylpropylsulfonyl-D-seryl-alanyl-argininal] | < 100 nM | > 2500 nM | – |
| Cbz-[dDap](methyloxycarbonyl)-Ala-[argininal] [N-α-benzyloxycarbonyl-N-β-methyloxycarbonyl-D-2,3-diaminopropionyl-alanyl-argininal] | – | > 2500 nM | – |
| Cbz-[dS]-Ser-Arg-{aldehyde′} [benzyloxycarbonyl-D-seryl-L-seryl-argininal] | ≥ 100 nM and ≤ 250 nM | > 2500 nM | – |
| Cbz-[dS]-Pro-[argininal] [benzyloxycarbonyl-D-seryl-prolyl-argininal] | < 100 nM | > 2500 nM | – |
| Isobutyloxycarbonyl-[dS]-Ala-Arg-{CO‑phenethylamide} (also: trifluoroacetate salt) [i-butoxycarbonyl-D-Ser-Ala-Arg-CO-phenethylamide, trifluoroacetate salt] | ≥ 100 nM and ≤ 250 nM | > 2500 nM | – |
| Cbz-Thr-Ala-[argininal] [benzyloxycarbonyl-threonyl-alanyl-argininal] | ≥ 100 nM and ≤ 250 nM | > 2500 nM | – |
| cyclohexylmethyloxycarbonyl-[dS]-Ala-[argininal] [cyclohexylmethyloxycarbonyl-D-seryl-alanyl-argininal] | < 100 nM | > 2500 nM | – |
| Isovaleryl-[dS]-Ala-[argininal] [isovaleryl-D-seryl-alanyl-argininal] | – | > 2500 nM | > 2500 nM |
| Cbz-[dS]-[Sar]-[argininal] [benzyloxycarbonyl-D-seryl-sarcosyl-argininal] | – | > 2500 nM | – |
| Cbz-[dS]-Cys(Me)-Arg-{aldehyde′} [benzyloxycarbonyl-D-seryl-S-methylcysteinyl-argininal] | ≥ 100 nM and ≤ 250 nM | > 2500 nM | – |
| {3‑phenylpropyl}-[dS]-Ala-Arg-{aldehyde′} (also: trifluoroacetate salt) [N-α-(3-phenylpropyl)-D-seryl-alanyl-argininal, trifluoroacetate salt] | < 100 nM | > 2500 nM | – |
| benzylazacarbonyl-[dS]-Ala-Arg-{aldehyde′} [benzylazacarbonyl-D-seryl-alanyl-argininal] | ≥ 100 nM and ≤ 250 nM | > 2500 nM | > 2500 nM |
| {(+)menthyloxycarbonyl}-[dS]-Ala-[Argininal] [(+)menthyloxy-carbonyl-D-seryl-alanyl-argininal] | < 100 nM | > 2500 nM | – |
| Isopropoxycarbonyl-[dS]-Ala-[argininal] [isopropyloxycarbonyl-D-seryl-alanyl-argininal] | < 100 nM | > 2500 nM | > 2500 nM |
| {(−)menthyloxycarbonyl}-[dS]-Ala-[Argininal] [(-)menthyloxy-carbonyl-D-seryl-alanyl-argininal] | < 100 nM | > 2500 nM | – |

| Binder | IC50 [1] | IC50 [2] | IC50 [3] |
| --- | --- | --- | --- |
| {2‑naphthyloxycarbonyl}-[dS]-Ala-Arg-{aldehyde′} [2-naphthyloxy-carbonyl-D-seryl-alanyl-argininal] | < 100 nM | > 2500 nM | – |
| Cbz-[dT]-Ala-[argininal] [benzyloxycarbonyl-D-threonyl-alanyl-argininal] | – | > 2500 nM | – |
| Cbz-[dS]-[cisHyp]-Arg-{aldehyde′} [benzyloxycarbonyl-D-seryl-L-cis-4-hydroxyprolyl-argininal] | < 100 nM | > 2500 nM | – |
| Cbz-[d(aThr)]-Ala-Arg-{aldehyde′} [benzyloxycarbonyl-D-allothreonyl-alanyl-argininal] | < 100 nM | > 2500 nM | – |
| Cbz-[dS]-Gly-Arg-{aldehyde′} [benzyloxycarbonyl-D-seryl-2-glycyl-argininal] | ≥ 100 nM and ≤ 250 nM | > 2500 nM | – |
| Cbz-[d(aThr)]-[Sar]-Arg-{aldehyde′} [benzyloxycarbonyl-D-allothreonyl-sarcosyl-argininal] | ≥ 100 nM and ≤ 250 nM | – | – |
| {n‑butyloxycarbonyl}-[dS]-Ala-[argininal] [n-butyloxycarbonyl-D-seryl-alanyl-argininal] | < 100 nM | > 2500 nM | – |
| phenoxycarbonyl-[dS]-Ala-[argininal] [phenoxycarbonyl-D-seryl-alanyl-argininal] | < 100 nM | > 2500 nM | – |
| Cbz-[d(hSer)]-Pro-[argininal] [benzyloxycarbonyl-D-homoseryl-prolyl-argininal] | ≥ 100 nM and ≤ 250 nM | > 2500 nM | < 100 nM |
| methyloxycarbonyl-[dS]-Ala-[argininal] [methyloxycarbonyl-D-seryl-alanyl-argininal] | < 100 nM | > 2500 nM | – |
| fluorenylmethyloxycarbonyl-[dS]-Ala-[argininal] [fluorenylmethyloxycarbonyl-D-seryl-alanyl-argininal] | < 100 nM | > 2500 nM | – |
| {2‑phenylethylsulfonyl}-[dS]-Ala-Arg-{aldehyde′} [2-phenylethylsulfonyl-D-seryl-alanyl-argininal] | < 100 nM | > 2500 nM | – |
| benzenesulfonyl-[dS]-Ala-Arg-{aldehyde′} (also: trifluoroacetate salt) [Benzenesufonyl-D-Ser-L-Ala-L-Arg-al, Trifluoroacetate Salt] | < 100 nM | > 2500 nM | – |
| {Propanoyl(3-cHex)}-[dS]-Ala-Arg-{aldehyde′} [3-cyclohexylpropionyl-D-seryl-alanyl-argininal] | – | > 2500 nM | > 2500 nM |
| Cbz-[dDap](2‑phenylethylcarbonyl)-Ala-[argininal] [N-α-benzyloxycarbonyl-N-β-2-phenylethylcarbonyl-D-2,3-diaminopropionyl-alanyl-argininal] | – | > 2500 nM | – |
| benzylsulfonyl-[dS]-Ala-Arg-{aldehyde′} (also: trifluoroacetate salt) [Benzylsulfonyl-D-Ser-Ala-Arg-al, Trifluoroacetate Salt] | < 100 nM | > 2500 nM | – |
| Cbz-[dS]-Ala-[argininal] [benzyloxycarbonyl-D-seryl-alanyl-argininal] | < 100 nM | – | – |
| Cbz-[d(aThr)]-[NMeA]-Arg-{aldehyde′} [benzyloxycarbonyl-D-allothreonyl-N-methylalanyl-argininal] | ≥ 100 nM and ≤ 250 nM | – | – |
| Cbz-[dA]-Ala-Arg-{aldehyde′} [benzyloxycarbonyl-D-alanyl-alanyl-argininal] | ≥ 100 nM and ≤ 250 nM | – | – |
| Cbz-[dDap](Cbz)-Ala-[argininal] [N-α-N-β-dibenzyloxycarbonyl-D-2,3-diaminopropionyl-alanyl-argininal] | ≥ 100 nM and ≤ 250 nM | > 2500 nM | ≥ 100 nM and ≤ 250 nM |
| Cbz-[dT]-Pro-[argininal] [benzyloxycarbonyl-D-threonyl-prolyl-argininal] | ≥ 100 nM and ≤ 250 nM | > 2500 nM | – |

From patent US6432922 (CORVAS INTERNATIONAL, dated 2002)
